Measurements: patent US20230277625A1 (SIMCHA IL 18, published 2023)
Positions count from the first letter of the chain named.

B1: SEQ ID NO: 89 (second generation human DR-IL-18 variant 6-12) (ligand)
chain: YFGKLESKLSVIRNLNDQVLFIDQGNRPLFEDMTDSDCRDNAPRTIFIISKYSDSLARGLAVTISVKCEKISTLSCENKIISFKEMNPPDNIKDTKSDIIFFQRDVPGHSRKMQFESSSYEGYFLACEKERDLFKLILKKEDELGDRSIMFTVQNED
notes: Engineered variant; recombinant soluble analyte in SPR and cell assays
B2: SEQ ID NO: 91 (second generation human DR-IL-18 variant 6-29) (ligand)
chain: B1 chain with L56R, D105N, S110G
notes: as for B1

Tests used:
[1] = biological target: T1, Human IL-18Rα ectodomain (amino acids 19-329), biotinylated (human, UniProt Q13478 19-329, biotin on the AviTag (BirA ligase)); test: SPR
T1 construct: range 19-329; Secreted from insect cells (gp67 signal peptide removed); also called hIL-18Rα; hIL18Rα
T1 sequence: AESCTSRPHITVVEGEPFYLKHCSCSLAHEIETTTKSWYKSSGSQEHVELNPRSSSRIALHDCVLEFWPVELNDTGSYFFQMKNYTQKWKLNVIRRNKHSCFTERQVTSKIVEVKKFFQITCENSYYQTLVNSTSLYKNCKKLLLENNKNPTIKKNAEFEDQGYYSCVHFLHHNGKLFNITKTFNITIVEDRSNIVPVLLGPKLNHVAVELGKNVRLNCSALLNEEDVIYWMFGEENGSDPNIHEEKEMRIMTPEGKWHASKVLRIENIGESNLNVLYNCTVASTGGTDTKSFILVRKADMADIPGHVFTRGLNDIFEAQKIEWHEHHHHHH

[2] = biological target: T1, Human IL-18Rα ectodomain (amino acids …); test: on-yeast binding isotherm (flow cytometry), drawn summary table, IL18Rα (KD)
Procedure: Individual colonies of IL-18 yeast were grown overnight at 30° C. in SDCAA liquid media and induced in SGCAA liquid media for 1 day at 20° C. IL-18 display levels on yeast were verified by flow cytometry using an anti-cMyc tag antibody (anti-myc-PE; Cell Signaling Technologies). Receptor staining with biotinylated IL-18Rα (with or without IL-18R β) or biotinylated IL-18BP was performed in PBS supplemented with 0.5% BSA and 2 mM EDTA (PBE) on ice. All analysis was performed on a Sony SA3800 flow cytometer.

[3] = biological target: T1, Human IL-18Rα ectodomain (amino acids …); test: SPR (Biacore T100), hIL-18Rα as surface ligand, 1:1 Langmuir
Procedure: (§1) Surface Plasmon Resonance (SPR) was used to perform biophysical affinity measurements of second generation DR-IL-18 variants (binding to IL-18R vs IL-18BP). Experiments were conducted using a Biacore T100 instrument and carried out at 25° C. Biotinylated IL-18Rα or IL-18BP were immobilized onto a Biacore biotin capture chip (Series S CAP sensor chip, GE Healthcare) to yield an Rmax of ˜50 RU (IL-18Rα) or ˜10 RU (IL-18BP). Measurements were made with serial dilutions of the IL-18 variants in HEPES buffered Saline-P+ buffer (10 mM HEPES pH 7.4, 150 mM NaCl, 0.005% surfactant P20). The surface was regenerated by three 60-sec injections of regeneration buffer (3/4 (v/v) 8M guanidine hydrochloride with ¼ (v/v) 1M sodium hydroxide). Experiments were performed in multiple channels simultaneously for increased observations. All data were analyzed with the Biacore T100 evaluation software version 2.0 with a 1:1 Langmuir binding model.

[4] = biological target: T2, Human IL-18BP (amino acids 31-194), biotinylated (human, UniProt O95998 31-194, biotin on the AviTag (BirA ligase) where used biotinylated); test: on-yeast binding isotherms; 20 µM used for NBD; printed without '>'; yeast-displayed variant; ratio computed with 20 µM put in for NBD
T2 construct: Soluble decoy receptor; also called hIL-18BP; recombinant IL-18BP
T2 sequence: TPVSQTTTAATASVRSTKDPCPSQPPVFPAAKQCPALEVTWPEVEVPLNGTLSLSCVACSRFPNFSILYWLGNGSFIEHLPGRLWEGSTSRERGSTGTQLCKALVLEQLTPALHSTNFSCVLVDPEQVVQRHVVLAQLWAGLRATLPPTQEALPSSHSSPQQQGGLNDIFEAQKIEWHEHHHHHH

[5] = biological target: T2, Human IL-18BP (amino acids 31-194), …; test: SPR; KD(IL-18BP)/KD(IL-18Rα) normalized to WT IL-18; SPR; ratio from the bound KD BP >10,000 nM
Procedure: as §1

[6] = biological target: T1, Human IL-18Rα ectodomain (amino acids …); test: SPR, apparent KD, first value of the cell; Exp 2
Procedure: as §1

[7] = biological target: T3, IL-18 receptor (IL-18Rα / IL-18Rβ heterodimer) on HEK-Blue IL-18 reporter cells (UniProt Q13478 19-541; O95256 20-599, limits assumed); test: cell-based or functional assay
T3 sequence (looked up) 1: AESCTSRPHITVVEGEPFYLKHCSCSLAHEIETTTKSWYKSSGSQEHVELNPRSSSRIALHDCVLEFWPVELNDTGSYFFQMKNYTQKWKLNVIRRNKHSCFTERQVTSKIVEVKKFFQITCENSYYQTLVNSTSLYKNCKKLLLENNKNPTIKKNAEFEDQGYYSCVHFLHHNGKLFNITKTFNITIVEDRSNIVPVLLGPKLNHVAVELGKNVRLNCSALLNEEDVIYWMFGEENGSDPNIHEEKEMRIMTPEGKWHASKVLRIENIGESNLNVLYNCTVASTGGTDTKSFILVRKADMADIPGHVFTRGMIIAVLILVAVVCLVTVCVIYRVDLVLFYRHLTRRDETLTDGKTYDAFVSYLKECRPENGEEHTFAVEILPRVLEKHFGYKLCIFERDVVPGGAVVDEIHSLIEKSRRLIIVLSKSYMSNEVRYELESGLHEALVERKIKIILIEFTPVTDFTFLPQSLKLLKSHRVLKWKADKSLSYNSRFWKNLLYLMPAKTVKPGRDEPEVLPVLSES
T3 sequence (looked up) 2: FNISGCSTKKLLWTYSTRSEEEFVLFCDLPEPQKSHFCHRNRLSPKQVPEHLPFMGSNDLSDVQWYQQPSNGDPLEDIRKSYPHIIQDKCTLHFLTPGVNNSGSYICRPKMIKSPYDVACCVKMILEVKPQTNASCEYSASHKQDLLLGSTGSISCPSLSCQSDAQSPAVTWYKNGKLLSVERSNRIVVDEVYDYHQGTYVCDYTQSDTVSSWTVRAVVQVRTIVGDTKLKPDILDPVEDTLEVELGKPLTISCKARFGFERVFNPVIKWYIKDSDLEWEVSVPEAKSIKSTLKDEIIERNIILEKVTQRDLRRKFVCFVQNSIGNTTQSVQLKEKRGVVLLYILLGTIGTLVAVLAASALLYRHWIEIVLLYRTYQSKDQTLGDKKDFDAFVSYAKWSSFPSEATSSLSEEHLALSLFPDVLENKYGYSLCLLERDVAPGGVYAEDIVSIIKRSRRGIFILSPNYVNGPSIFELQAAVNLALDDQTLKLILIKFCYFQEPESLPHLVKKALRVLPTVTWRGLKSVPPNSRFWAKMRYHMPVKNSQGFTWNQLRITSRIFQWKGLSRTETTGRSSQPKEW

[8] = biological target: T1, Human IL-18Rα ectodomain (amino acids …); test: SPR (Biacore T100), hIL-18Rα as surface ligand; Exp 1
Procedure: as §1

[9] = biological target: T2, Human IL-18BP (amino acids 31-194), …; test: on-yeast binding isotherms; KD ratio relative to WT IL-18; yeast-displayed variant; ratio normalized to WT, from the 20 µM placeholder
[10] = biological target: T1, Human IL-18Rα ectodomain (amino acids …); test: SPR (Biacore T100), hIL-18Rα as surface ligand; Exp 2
Procedure: as §1

[11] = biological target: T1, Human IL-18Rα ectodomain (amino acids …); test: SPR, apparent KD, second value of the cell; Exp 1
Procedure: as §1

[12] = biological target: T2, Human IL-18BP (amino acids 31-194), …; test: SPR; KD(IL-18BP)/KD(IL-18Rα) normalized to WT IL-18; SPR; normalized ratio, a bound from KD BP >10,000 nM
Procedure: as §1

[13] = biological target: T1, Human IL-18Rα ectodomain (amino acids …); test: SPR, apparent KD, second value of the cell
Procedure: as §1

[14] = biological target: T1, Human IL-18Rα ectodomain (amino acids …); test: SPR, apparent KD, first value of the cell
Procedure: as §1

| Binder | Kd [1] [nM] | Kd [2] [nM] | koff [3] [s⁻¹] | kon [3] [M⁻¹ s⁻¹] | KD ratio IL-18BP/IL-18Rα [4] | IL-18 BP:Rα Dissociation Constant Ratio [5] | Kd [6] [nM] | EC50-#1 (M), HEK-Blue reporter [7] [M] | EC50-#2 (M), HEK-Blue reporter [7] [M] | Kd [8] [nM] | Dissociation Constant Ratio normalized to WT IL-18 [9] | Kd [10] [nM] | Kd [11] [nM] | IL-18 BP:Rα Dissociation Constant Ratio [12] | Kd [13] [nM] | Kd [14] [nM] |
| --- | --- | --- | --- | --- | --- | --- | --- | --- | --- | --- | --- | --- | --- | --- | --- | --- |
| B1 | 2.2 | 17 | 0.00091 | 495000 | > 1200 | > 9.32e+06 | 1.8 | 1.43e-10 | 5.44e-11 | 2.24 | > 17000 | 1.84 | 2.2 |  |  |  |
| B2 | 2.7 | 37 | 0.00119 | 575000 |  |  |  |  |  | 2.65 |  | 2.07 |  | > 7.59e+06 | 2.7 | 2.1 |
